Literature values, collected in paper PMC3740200 (Dalton transactions (Cambridge, England : 2003), 2012).
Read-outs that look alike come from different tables or passages of the source.

What was measured:
[1] = 4 °C, ref [16]
[2] = ref [2]
[3] = ref [16]
[4] = ref [1]; for turnover number: 100 mM phosphate buffer pH 7, 25 °C

B1: WT DaCld: wild-type chlorite dismutase from Dechloromonas aromatica, heme-binding pentameric enzyme (protein, UniProt Q47CX0 32-282, looked up)
Chlorite dismutase: QQAMQPMQSMKIERGTILTQPGVFGVFTMFKLRPDWNKVPVAERKGAAEEVKKLIEKHKDNVLVDLYLTRGLETNSDFFFRINAYDLAKAQTFMREFRSTTVGKNADVFETLVGVTKPLNYISKDKSPGLNAGLSSATYSGPAPRYVIVIPVKKNAEWWNMSPEERLKEMEVHTTPTLAYLVNVKRKLYHSTGLDDTDFITYFETDDLTAFNNLMLSLAQVKENKFHVRWGSPTTLGTIHSPEDVIKALAD
For B1, the kcat ([1]; acidic form) is listed as 120 ± 5 × 10^2 s^-1, the kcat ([1]; alkaline form) is listed as 460 s⁻¹ and the “first order kobs of second step (PAA-independent)” value ([2]; pH 6.0) is listed as 0.3 s⁻¹. For the same molecule, the “second order rate constant k, formation of Compound I with PAA” value ([2]; pH 6) was 190000 M⁻¹ s⁻¹, the “second order rate constant k, reaction with PAA” value ([2]; pH 8) was 1.3e+06 M⁻¹ s⁻¹ and the “pKa of alkaline transition (5cHS to 6cLS)” value [3] was 8.9. The turnover number [4] was 1.7×10^4 ClO2^− ions/heme, the turnover number ([4]; listed as WT) was 17000 ClO2^− ions/heme and the “turnovers before irreversibly inactivating” value [4] was ~ 20,000 turnovers.
